Experimental data: IntAct's records for PubMed 31515488

B1: Protein LDOC1 (Homo sapiens), O95751 (parent)
chain: MVDELVLLLHALLMRHRALSIENSQLMEQLRLLVCERASLLRQVRPPSCPVPFPETFNGESSRLPEFIVQTASYMLVNENRFCNDAMKVAFLISLLTGEAEEWVVPYIEMDSPILGDYRAFLDEMKQCFGWDDDEDDDDEEEEDDY
partner: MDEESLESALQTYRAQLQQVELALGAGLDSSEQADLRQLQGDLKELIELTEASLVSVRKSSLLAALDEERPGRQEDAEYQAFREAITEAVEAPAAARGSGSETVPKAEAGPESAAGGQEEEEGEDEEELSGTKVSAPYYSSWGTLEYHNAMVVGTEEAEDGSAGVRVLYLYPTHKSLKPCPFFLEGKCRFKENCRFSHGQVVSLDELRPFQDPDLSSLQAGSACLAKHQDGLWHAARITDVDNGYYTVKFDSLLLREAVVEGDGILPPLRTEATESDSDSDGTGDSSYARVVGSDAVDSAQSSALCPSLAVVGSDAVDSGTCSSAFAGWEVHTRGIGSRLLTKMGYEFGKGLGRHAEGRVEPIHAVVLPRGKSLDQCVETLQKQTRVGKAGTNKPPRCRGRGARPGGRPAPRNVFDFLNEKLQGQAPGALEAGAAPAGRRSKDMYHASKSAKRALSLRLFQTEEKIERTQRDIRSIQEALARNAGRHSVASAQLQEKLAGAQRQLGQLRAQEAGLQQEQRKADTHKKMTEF
B2: Ubiquitin-conjugating enzyme E2 E3 (Homo sapiens), Q969T4 (parent)
chain: MSSDRQRSDDESPSTSSGSSDADQRDPAAPEPEEQEERKPSATQQKKNTKLSSKTTAKLSTSAKRIQKELAEITLDPPPNCSAGPKGDNIYEWRSTILGPPGSVYEGGVFFLDITFSSDYPFKPPKVTFRTRIYHCNINSQGVICLDILKDNWSPALTISKVLLSICSLLTDCNPADPLVGSIATQYLTNRAEHDRIARQWTKRYAT
partner: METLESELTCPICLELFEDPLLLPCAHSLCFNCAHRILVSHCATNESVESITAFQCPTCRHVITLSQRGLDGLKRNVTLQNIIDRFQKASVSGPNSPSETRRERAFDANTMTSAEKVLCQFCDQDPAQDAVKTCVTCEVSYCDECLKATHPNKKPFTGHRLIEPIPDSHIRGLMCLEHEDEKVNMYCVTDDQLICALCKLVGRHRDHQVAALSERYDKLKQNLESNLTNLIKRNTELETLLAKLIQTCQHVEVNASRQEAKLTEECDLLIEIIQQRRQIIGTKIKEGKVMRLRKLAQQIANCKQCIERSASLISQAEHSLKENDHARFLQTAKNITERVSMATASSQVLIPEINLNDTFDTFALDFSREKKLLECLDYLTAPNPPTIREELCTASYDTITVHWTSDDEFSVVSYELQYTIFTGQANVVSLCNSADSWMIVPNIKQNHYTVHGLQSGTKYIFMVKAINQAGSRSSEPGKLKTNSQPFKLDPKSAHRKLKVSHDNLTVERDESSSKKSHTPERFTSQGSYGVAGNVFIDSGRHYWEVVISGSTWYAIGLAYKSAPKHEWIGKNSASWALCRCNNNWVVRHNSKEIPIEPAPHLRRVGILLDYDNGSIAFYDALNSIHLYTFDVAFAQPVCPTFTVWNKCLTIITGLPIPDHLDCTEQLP
B3: Tuftelin-interacting protein 11 (Homo sapiens), Q9UBB9 (parent)
chain: MSLSHLYRDGEGRIDDDDDERENFEITDWDLQNEFNPNRQRHWQTKEEATYGVWAERDSDDERPSFGGKRARDYSAPVNFISAGLKKGAAEEAELEDSDDEEKPVKQDDFPKDFGPRKLKTGGNFKPSQKGFAGGTKSFMDFGSWERHTKGIGQKLLQKMGYVPGRGLGKNAQGIINPIEAKQRKGKGAVGAYGSERTTQSMQDFPVVDSEEEAEEEFQKELSQWRKDPSGSKKKPKYSYKTVEELKAKGRISKKLTAPQKELSQVKVIDMTGREQKVYYSYSQISHKHNVPDDGLPLQSQQLPQSGKEAKAPGFALPELEHNLQLLIDLTEQEIIQNDRQLQYERDMVVNLFHELEKMTEVLDHEERVISNLSKVLEMVEECERRMQPDCSNPLTLDECARIFETLQDKYYEEYRMSDRVDLAVAIVYPLMKEYFKEWDPLKDCTYGTEIISKWKSLLENDQLLSHGGQDLSADAFHRLIWEVWMPFVRNIVTQWQPRNCDPMVDFLDSWVHIIPVWILDNILDQLIFPKLQKEVENWNPLTDTVPIHSWIHPWLPLMQARLEPLYSPIRSKLSSALQKWHPSDSSAKLILQPWKDVFTPGSWEAFMVKNIVPKLGMCLGELVINPHQQHMDAFYWVIDWEGMISVSSLVGLLEKHFFPKWLQVLCSWLSNSPNYEEITKWYLGWKSMFSDQVLAHPSVKDKFNEALDIMNRAVSSNVGAYMQPGARENIAYLTHTERRKDFQYEAMQERREAENMAQRGIGVAASSVPMNFKDLIETKAEEHNIVFMPVIGKRHEGKQLYTFGRIVIYIDRGVVFVQGEKTWVPTSLQSLIDMAK
partner: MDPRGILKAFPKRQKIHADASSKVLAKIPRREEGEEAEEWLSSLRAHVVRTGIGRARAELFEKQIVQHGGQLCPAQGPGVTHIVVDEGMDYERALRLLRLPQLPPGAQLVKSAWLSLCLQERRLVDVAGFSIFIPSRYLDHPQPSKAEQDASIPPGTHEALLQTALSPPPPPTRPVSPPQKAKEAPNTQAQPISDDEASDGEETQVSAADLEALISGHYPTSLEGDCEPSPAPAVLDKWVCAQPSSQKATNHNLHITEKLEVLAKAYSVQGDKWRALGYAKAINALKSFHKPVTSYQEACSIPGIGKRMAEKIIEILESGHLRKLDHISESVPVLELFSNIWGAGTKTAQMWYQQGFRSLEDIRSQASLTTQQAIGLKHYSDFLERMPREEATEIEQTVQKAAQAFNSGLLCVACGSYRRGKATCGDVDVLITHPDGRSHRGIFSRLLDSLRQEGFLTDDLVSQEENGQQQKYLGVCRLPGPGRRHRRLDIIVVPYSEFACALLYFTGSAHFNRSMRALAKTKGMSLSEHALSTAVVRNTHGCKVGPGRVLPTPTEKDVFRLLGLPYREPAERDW
B4: Ligand of Numb protein X 2 (Homo sapiens), Q8N448 (parent)
chain: MGTTSDEMVSVEQTSSSSLNPLCFECGQQHWTRENHLYNYQNEVDDDLVCHICLQPLLQPLDTPCGHTFCYKCLRNFLQEKDFCPLDRKRLHFKLCKKSSILVHKLLDKLLVLCPFSSVCKDVMQRCDLEAHLKNRCPGASHRRVALERRKTSRTQAEIENENGPTLLDPAGTLSPEADCLGTGAVPVERHLTSASLSTWSEEPGLDNPAFEESAGADTTQQPLSLPEGEITTIEIHRSNPYIQLGISIVGGNETPLINIVIQEVYRDGVIARDGRLLAGDQILQVNNYNISNVSHNYARAVLSQPCNTLHLTVLRERRFGNRAHNHSDSNSPREEIFQVALHKRDSGEQLGIKLVRRTDEPGVFILDLLEGGLAAQDGRLSSNDRVLAINGHDLKYGTPELAAQIIQASGERVNLTIARPGKPQPGNTIREAGNHSSSSQHHTPPPYYSRPSSHKDLTQCVTCQEKHITVKKEPHESLGMTVAGGRGSKSGELPIFVTSVPPHGCLARDGRIKRGDVLLNINGIDLTNLSHSEAVAMLKASAASPAVALKALEVQIVEEATQNAEEQPSTFSENEYDASWSPSWVMWLGLPSTLHSCHDIVLRRSYLGSWGFSIVGGYEENHTNQPFFIKTIVLGTPAYYDGRLKCGDMIVAVNGLSTVGMSHSALVPMLKEQRNKVTLTVICWPGSLV
partner: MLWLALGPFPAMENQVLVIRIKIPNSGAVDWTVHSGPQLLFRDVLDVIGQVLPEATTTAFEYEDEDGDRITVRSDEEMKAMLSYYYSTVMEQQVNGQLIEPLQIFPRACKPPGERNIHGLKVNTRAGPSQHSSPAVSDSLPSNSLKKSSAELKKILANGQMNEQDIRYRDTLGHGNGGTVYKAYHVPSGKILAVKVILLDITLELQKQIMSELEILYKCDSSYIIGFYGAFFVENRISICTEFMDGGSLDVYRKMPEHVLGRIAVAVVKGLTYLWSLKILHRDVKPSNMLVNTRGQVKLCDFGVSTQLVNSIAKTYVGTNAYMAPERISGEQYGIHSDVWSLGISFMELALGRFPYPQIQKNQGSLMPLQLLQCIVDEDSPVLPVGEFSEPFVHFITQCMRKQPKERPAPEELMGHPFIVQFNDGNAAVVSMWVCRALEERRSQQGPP
B5: Protein LDOC1 (Homo sapiens), O95751 (parent)
chain: B1 chain
partner: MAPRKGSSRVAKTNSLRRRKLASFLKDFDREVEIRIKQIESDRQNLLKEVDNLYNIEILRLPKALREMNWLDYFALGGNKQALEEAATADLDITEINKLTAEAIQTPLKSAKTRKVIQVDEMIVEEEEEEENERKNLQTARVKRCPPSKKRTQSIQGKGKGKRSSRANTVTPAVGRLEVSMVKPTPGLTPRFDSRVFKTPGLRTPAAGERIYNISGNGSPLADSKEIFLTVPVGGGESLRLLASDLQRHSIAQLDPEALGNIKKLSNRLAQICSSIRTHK
B6: F-box only protein 3 (Homo sapiens), Q9UK99 (parent)
chain: MAAMETETAPLTLESLPTDPLLLILSFLDYRDLINCCYVSRRLSQLSSHDPLWRRHCKKYWLISEEEKTQKNQCWKSLFIDTYSDVGRYIDHYAAIKKAWDDLKKYLEPRCPRMVLSLKEGAREEDLDAVEAQIGCKLPDDYRCSYRIHNGQKLVVPGLLGSMALSNHYRSEDLLDVDTAAGGFQQRQGLKYCLPLTFCIHTGLSQYIAVEAAEGRNKNEVFYQCPDQMARNPAAIDMFIIGATFTDWFTSYVKNVVSGGFPIIRDQIFRYVHDPECVATTGDITVSVSTSFLPELSSVHPPHYFFTYRIRIEMSKDALPEKACQLDSRYWRITNAKGDVEEVQGPGVVGEFPIISPGRVYEYTSCTTFSTTSGYMEGYYTFHFLYFKDKIFNVAIPRFHMACPTFRVSIARLEMGPDEYEEMEEEEEEEEEEDEDDDSADMDESDEDDEEERRRRVFDVPIRRRRCSRLF
B7: "Peptide-N(4)-(N-acetyl-beta-glucosaminyl)asparagine amidase" (Homo sapiens), Q96IV0 (parent)
chain: MAAAALGSSSGSASPAVAELCQNTPETFLEASKLLLTYADNILRNPNDEKYRSIRIGNTAFSTRLLPVRGAVECLFEMGFEEGETHLIFPKKASVEQLQKIRDLIAIERSSRLDGSNKSHKVKSSQQPAASTQLPTTPSSNPSGLNQHTRNRQGQSSDPPSASTVAADSAILEVLQSNIQHVLVYENPALQEKALACIPVQELKRKSQEKLSRARKLDKGINISDEDFLLLELLHWFKEEFFHWVNNVLCSKCGGQTRSRDRSLLPSDDELKWGAKEVEDHYCDACQFSNRFPRYNNPEKLLETRCGRCGEWANCFTLCCRAVGFEARYVWDYTDHVWTEVYSPSQQRWLHCDACEDVCDKPLLYEIGWGKKLSYVIAFSKDEVVDVTWRYSCKHEEVIARRTKVKEALLRDTINGLNKQRQLFLSENRRKELLQRIIVELVEFISPKTPKPGELGGRISGSVAWRVARGEMGLQRKETLFIPCENEKISKQLHLCYNIVKDRYVRVSNNNQTISGWENGVWKMESIFRKVETDWHMVYLARKEGSSFAYISWKFECGSVGLKVDSISIRTSSQTFQTGTVEWKLRSDTAQVELTGDNSLHSYADFSGATEVILEAELSRGDGDVAWQHTQLFRQSLNDHEENCLEIIIKFSDL
partner: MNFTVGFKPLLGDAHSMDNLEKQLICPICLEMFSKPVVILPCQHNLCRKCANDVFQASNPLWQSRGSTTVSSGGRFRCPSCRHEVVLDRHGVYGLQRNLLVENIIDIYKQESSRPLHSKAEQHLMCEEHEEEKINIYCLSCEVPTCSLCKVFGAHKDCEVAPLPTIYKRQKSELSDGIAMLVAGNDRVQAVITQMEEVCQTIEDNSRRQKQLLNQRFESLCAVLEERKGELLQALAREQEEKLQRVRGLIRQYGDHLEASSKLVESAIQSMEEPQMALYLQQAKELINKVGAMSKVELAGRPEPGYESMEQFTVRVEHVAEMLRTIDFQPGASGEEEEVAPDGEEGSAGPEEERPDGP
B8: Dynein light chain 2, cytoplasmic (Homo sapiens), Q96FJ2 (parent)
chain: MSDRKAVIKNADMSEDMQQDAVDCATQAMEKYNIEKDIAAYIKKEFDKKYNPTWHCIVGRNFGSYVTHETKHFIYFYLGQVAILLFKSG
partner: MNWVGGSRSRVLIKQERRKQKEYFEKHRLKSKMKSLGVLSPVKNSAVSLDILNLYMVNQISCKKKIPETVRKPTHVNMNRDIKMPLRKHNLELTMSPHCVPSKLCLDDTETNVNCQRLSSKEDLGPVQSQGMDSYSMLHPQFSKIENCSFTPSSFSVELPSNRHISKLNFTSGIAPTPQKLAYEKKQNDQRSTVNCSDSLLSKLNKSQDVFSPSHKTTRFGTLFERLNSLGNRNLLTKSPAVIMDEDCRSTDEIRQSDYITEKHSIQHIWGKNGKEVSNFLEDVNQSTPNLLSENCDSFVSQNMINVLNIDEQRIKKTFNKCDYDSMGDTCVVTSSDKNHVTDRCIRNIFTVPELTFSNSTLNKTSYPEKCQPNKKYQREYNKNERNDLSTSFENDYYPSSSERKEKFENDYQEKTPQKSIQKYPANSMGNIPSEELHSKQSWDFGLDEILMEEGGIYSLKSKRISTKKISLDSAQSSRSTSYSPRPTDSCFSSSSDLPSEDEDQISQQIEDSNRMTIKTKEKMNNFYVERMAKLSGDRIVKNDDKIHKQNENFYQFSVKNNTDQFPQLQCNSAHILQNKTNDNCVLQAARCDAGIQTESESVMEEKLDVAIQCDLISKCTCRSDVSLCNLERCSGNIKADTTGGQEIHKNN

Variants of: B1
Conditions: with zgpat_human ZGPAT

Variant	effect of a mutation on the interaction
L12H	disrupting interaction strength

Variants of: B2
Conditions: with tri18_human MID1, O15344

Variant	effect of a mutation on the interaction
S117T	with no effect

Variants of: B3
Conditions: with dpoll_human POLL

Variant	effect of a mutation on the interaction
R8Q	with no effect
S688L	with no effect

Variants of: B4
Conditions: with mp2k5_human MAP2K5, Q13163

Variant	effect of a mutation on the interaction
S198P	with no effect

Variants of: B5
Conditions: with borea_human CDCA8, Q53HL2

Variant	effect of a mutation on the interaction
L12H	disrupting interaction strength

Variants of: B6
Conditions: with skp1_human SKP1, P63208
Chain of skp1_human SKP1, P63208 (P63208 whole entry): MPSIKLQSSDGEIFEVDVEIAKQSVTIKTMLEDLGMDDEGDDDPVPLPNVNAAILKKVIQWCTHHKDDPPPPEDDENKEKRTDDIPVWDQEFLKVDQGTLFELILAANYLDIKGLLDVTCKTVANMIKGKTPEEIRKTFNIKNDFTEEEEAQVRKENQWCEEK

Variant	effect of a mutation on the interaction
P10S	with no effect

Variants of: B7
Conditions: with tri54_human TRIM54, Q9BYV2

Variant	effect of a mutation on the interaction
F292L	with no effect
V184F	with no effect

Variants of: B8
Conditions: with rdic1_human REDIC1, Q86WS4

Variant	effect of a mutation on the interaction
E30D	with no effect
